Our source for the switch fluorescence ratio values is the supplement of paper PMC10126150.

± gives the standard deviation of the averaged measurements.
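Note: ATP exposure 15 min at 22 °C before imaging.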

The series has as its system ATP. Nature of the series: switch fluorescence ratio, 500 uM ATP over buffer (Cy3 cluster intensity, sum of 5 cycles each) (fold (ratio)); higher = stronger signal-on switching upon ATP binding; sequences stand for … in TCGTCGGCAGCGTCAGATGTGTATAAGAGACAGTTTTTTTTTTTTTTTTTTTTTTTTT…TC. As to conditions: aptamer strand: ATP DNA aptamer (quencher-CACCTGGGGGAGTATTGCGGAGGAAGG + anchor), 100 nM annealed; ATP concentration: 500 uM. In a few lines:
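For every switch-domain sequence, the fluorescence ratio is the mean of per-cluster values, each being summed target-cycle Cy3 intensity over summed buffer-cycle Cy3 intensity. Clusters outside 100-1000 RFU were excluded. On a modified Illumina MiSeq flow-cell, the Cy3-labelled switching-strand clusters were annealed to 100 nM quencher-labelled ATP aptamer, imaged in selection buffer and then after 15 min with 500 uM ATP at 22 °C. Five such cycles were run, with NaOH stripping and re-annealing between them.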
Regarding GAGTTTGTGG, the switch fluorescence ratio is 0.998 ± 0.024. For ACCGTGAGGC the value was 1.02 ± 0.088; for TGGGGTACAC, 0.993 ± 0.024; for TGACTTGGAC, 1.02 ± 0.013. For ATTGAAAAAG the value was 1.01 ± 0.025; for GCGCTATCTT, 1.06 ± 0.041; for TTGATAGTCG, 0.969 ± 0.024. For GGTATTGCGG the value was 1.05 ± 0.023; for GACGTATTTT, 0.9993 ± 0.0013; for TATGGGCACG, 0.99 ± 0.024. Take GGTCTACTTG: the switch fluorescence ratio came out at 0.984 ± 0.057. Regarding TAGGTGGCGT, the switch fluorescence ratio turned out to be 1.006 ± 0.0028. With AATTGCGTCA, the switch fluorescence ratio stood at 0.9608 ± 0.0066. As for TTAATAGGG, the switch fluorescence ratio came out at 1 ± 0.022. For the sequence AAAGGGGGCA, the switch fluorescence ratio stood at 0.99 ± 0.031. Turning to GGGGTTCGGG, the switch fluorescence ratio was 0.992 ± 0.017. The value for GATTTCATG was 0.993 ± 0.019; that for GGGTACAGGA was 0.99686 ± 5.1e-05. For ACGGGTGGCA the value was 0.986 ± 0.019.

With TGTTGGAGGT, the switch fluorescence ratio came to 1.02 ± 0.045. As for ATCGTGTGAG, the switch fluorescence ratio was 1.02 ± 0.015.

In the case of TCAGTCAACC, the switch fluorescence ratio was determined as 1.1 ± 0.017.

As for CAAGAGGGGT, the switch fluorescence ratio is 1.01 ± 0.016. The value for GATAGTGTCG was 1.04 ± 0.045.

In the case of AAGGGTATTG, the switch fluorescence ratio stood at 0.995 ± 0.024. The value for CCTGGCAAGT was 1.87 ± 0.078; that for TAATAGGCTT was 1.01 ± 0.027. For ACATGAAGAT the value was 1.031 ± 0.0025; for TTTAGCCGGG, 0.985 ± 0.014. For CCGTGCAGTT the value was 2.12 ± 0.82; for TTTGATGCAT, 1.03 ± 0.026; for GCTCTTTGCT, 0.988 ± 0.044. For the sequence GGTTAGATGT, the switch fluorescence ratio came out at 0.9766 ± 0.0075. For the sequence ATAATAGGGT, the switch fluorescence ratio is 0.972 ± 0.03. For CGCGCTGACA the value was 1.009 ± 0.0057; for ATGTATGTAA, 1.01 ± 0.018; for TTTAAATTAG, 0.969 ± 0.046. Regarding CCACAATTTT, the switch fluorescence ratio was found to be 1.43 ± 0.63.

For the sequence TCGGTAATC, the switch fluorescence ratio was 1.15 ± 0.0017. The value for GGTATCTTAG was 0.9857 ± 0.0087; that for TGAAGGTACA was 1.034 ± 0.0031; that for GTTTCAGGCT was 0.9888 ± 0.0041.

In the case of ACGAAGGTCT, the switch fluorescence ratio came to 0.998 ± 0.012.

Consider AATTACTTCT, for which the switch fluorescence ratio stood at 1.042 ± 0.0026. The value for GTATAATTGT was 0.984 ± 0.019. The value for GCGGCTGTTA was 1.01 ± 0.013; that for AATGGGGTTT was 0.9689 ± 0.0085.

As for GCTCTAGATC, the switch fluorescence ratio turned out to be 1.35 ± 0.07. The value for TTGTAGGGAA was 1.03 ± 0.013; that for TCGAGCTTGT was 1 ± 0.024; that for GCGGCTGTGG was 0.9861 ± 0.008. Take CAATTTGAAG: the switch fluorescence ratio stood at 0.978 ± 0.051. The value for TTTCACAGGA was 1.03 ± 0.025.

Consider CCTGGGCTGT, for which the switch fluorescence ratio turned out to be 1.52 ± 0.48.

As to ACTTGGCGTC, the switch fluorescence ratio amounted to 1.02 ± 0.06. For CAAGCATTTT the value was 1.011 ± 0.0016; for TTTTTACGGC, 1.02 ± 0.016. Consider GAATTCGGGA, for which the switch fluorescence ratio was found to be 1 ± 0.013.

In the case of TGGGTAACTT, the switch fluorescence ratio is 1.1 ± 0.18. Turning to GCGAGTATGC, the switch fluorescence ratio was found to be 1.03 ± 0.02.

ATGGTAGTGC: the switch fluorescence ratio was determined as 0.986 ± 0.016.

As to TATACAGGGG, the switch fluorescence ratio is 1.2 ± 0.024. The value for TCAGGTTAGG was 1.008 ± 0.0065; that for TTTGTCTAGG was 0.994 ± 0.019; that for CGTTTCGAAT was 0.96 ± 0.027.

Take AGTTAAAGTG: the switch fluorescence ratio is 1.03 ± 0.057. For TGGATGAAGA the value was 1.025 ± 0.0078; for TGGTCTTCCA, 1.04 ± 0.013; for CTGAGAGTAC, 1.05 ± 0.07. TTTATCATTG: the switch fluorescence ratio worked out at 0.9909 ± 0.0086. The value for GCATGTTGGG was 1.01 ± 0.029; that for TTTTGTACGC was 1.097 ± 0.0065; that for TCGCGGGAAG was 1.015 ± 0.0054. On to TTCAGCGATG, for which the switch fluorescence ratio stood at 1.024 ± 0.0081. On to TGTTAGATGA, for which the switch fluorescence ratio was determined as 0.976 ± 0.013. For TGAGGTTGTC the value was 0.981 ± 0.09; for GGGGAGTGAA, 0.992 ± 0.031; for TGGGTGTAT, 1.01 ± 0.023. The value for ATCGAAAAAC was 1.01 ± 0.05; that for GTATGAATCG was 0.961 ± 0.056. The value for GGGACGGATT was 1 ± 0.021; that for TTTAGGGGTT was 1.02 ± 0.083.

As to CCCGGGTTAG, the switch fluorescence ratio stood at 1.08 ± 0.028. For the sequence AAACGGGGTA, the switch fluorescence ratio stood at 1.01 ± 0.033. Take CTGGAAGGTG: the switch fluorescence ratio was 1.811 ± 0.017. The value for ACTGTTTTCT was 1.05 ± 0.02. With TTTCGGATGC, the switch fluorescence ratio is 1.22 ± 0.26. Consider ACGAAGGATA, for which the switch fluorescence ratio is 1.04 ± 0.014. For ATGGTGAGCG the value was 0.978 ± 0.017. As to GTAGGGGGGT, the switch fluorescence ratio is 1.07 ± 0.21. For GTGCTGGATT the value was 1.02 ± 0.018; for TGATTGTGGG, 1.03 ± 0.033.

With ATTAGGGCAT, the switch fluorescence ratio came out at 1.006 ± 0.0075.

In the case of TACTGGGGCA, the switch fluorescence ratio was found to be 0.9842 ± 0.0028. With GTTGACAGCT, the switch fluorescence ratio was determined as 1 ± 0.015. Turning to AAACGGTAGC, the switch fluorescence ratio was 1.07 ± 0.017. Turning to AAGTACGTTC, the switch fluorescence ratio was determined as 1.25 ± 0.035.

In the case of ACGGGGGCCT, the switch fluorescence ratio is 1.014 ± 0.0045.

For TTTTTATTAG, the switch fluorescence ratio was 0.983 ± 0.027. For GGGTTATTTG the value was 1.01 ± 0.045. As to CTTTTTGTTG, the switch fluorescence ratio worked out at 1.03 ± 0.031. For AATGGTGGTC the value was 0.998 ± 0.012; for TAGTAGTTGC, 1.032 ± 0.0059. For GGGTAAGCCC the value was 0.987 ± 0.015; for GATTTACTGG, 1.04 ± 0.024. For ACTATGGCCC the value was 1.03 ± 0.017. For the sequence AATATGGAGG, the switch fluorescence ratio was found to be 0.985 ± 0.033. GCCGCCGGGG: the switch fluorescence ratio came out at 0.996 ± 0.032. The value for ATTGGGACAG was 0.994 ± 0.031; that for AGATCGAACT was 0.994 ± 0.019; that for GTGCTGGTGG was 0.9839 ± 0.0043. For TTACTTTGAG, the switch fluorescence ratio stood at 1.02 ± 0.048. Take TTTGATCTCG: the switch fluorescence ratio is 1.0054 ± 0.00071. The value for ACTGGGTACC was 1.05 ± 0.012; that for CATTCTTTGG was 0.9836 ± 0.0041; that for TTTTTATGAC was 1.01 ± 0.029. The value for AATCTAAGGT was 0.983 ± 0.064; that for ACTGGTTGGG was 0.966 ± 0.018.

Take GAGTTCGCGT: the switch fluorescence ratio came out at 1.093 ± 0.0049. As for GGAGGCCATG, the switch fluorescence ratio was 0.967 ± 0.01.
